# From patent publication US6878804B1, “Synthesis of template-fixed β-hairpin loop mimetics” (University of Zurich, priority 1999, dated 2005)
# Non-standard residues stand in square brackets, D forms with d.
# T1: platelet-derived growth factor β-receptor (PDGFR-β)
# T1 chain: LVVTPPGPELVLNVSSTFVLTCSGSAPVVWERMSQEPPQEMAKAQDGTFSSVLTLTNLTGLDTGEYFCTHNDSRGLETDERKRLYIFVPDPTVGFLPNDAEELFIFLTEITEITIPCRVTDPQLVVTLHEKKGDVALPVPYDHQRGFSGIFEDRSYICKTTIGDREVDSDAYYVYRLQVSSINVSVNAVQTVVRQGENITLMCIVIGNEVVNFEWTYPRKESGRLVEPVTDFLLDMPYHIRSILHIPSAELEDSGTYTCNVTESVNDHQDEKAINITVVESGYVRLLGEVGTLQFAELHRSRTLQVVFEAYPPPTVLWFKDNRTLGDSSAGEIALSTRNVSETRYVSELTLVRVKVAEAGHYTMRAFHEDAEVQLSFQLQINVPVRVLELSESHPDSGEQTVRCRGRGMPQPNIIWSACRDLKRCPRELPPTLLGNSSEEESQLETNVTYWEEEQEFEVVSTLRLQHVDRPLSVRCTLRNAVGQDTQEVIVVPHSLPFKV
# B1: target cyclic peptide 10 (peptide)
# peptide: cyclo(PYAVRKKAY[dP])
# SMILES: CC(C)[C@@H]1NC(=O)[C@H](C)NC(=O)[C@H](Cc2ccc(O)cc2)NC(=O)[C@@H]2CCCN2C(=O)[C@H]2CCCN2C(=O)[C@H](Cc2ccc(O)cc2)NC(=O)[C@H](C)NC(=O)[C@H](CCCCN)NC(=O)[C@H](CCCCN)NC(=O)[C@H](CCCNC(=N)N)NC1=O
# notes: also called ^LP-Y-A-V-R / ^DP-Y-A-K-K
# B2: target cyclic peptide 11 (peptide)
# peptide: cyclo(PYSVRKKSY[dP])
# SMILES: CC(C)[C@@H]1NC(=O)[C@H](CO)NC(=O)[C@H](Cc2ccc(O)cc2)NC(=O)[C@@H]2CCCN2C(=O)[C@H]2CCCN2C(=O)[C@H](Cc2ccc(O)cc2)NC(=O)[C@H](CO)NC(=O)[C@H](CCCCN)NC(=O)[C@H](CCCCN)NC(=O)[C@H](CCCNC(=N)N)NC1=O
# notes: also called ^LP-Y-S-V-R / ^DP-Y-S-K-K
# B3: target cyclic peptide 12 (peptide)
# peptide: cyclo(PYKVRKKKY[dP])
# SMILES: CC(C)[C@@H]1NC(=O)[C@H](CCCCN)NC(=O)[C@H](Cc2ccc(O)cc2)NC(=O)[C@@H]2CCCN2C(=O)[C@H]2CCCN2C(=O)[C@H](Cc2ccc(O)cc2)NC(=O)[C@H](CCCCN)NC(=O)[C@H](CCCCN)NC(=O)[C@H](CCCCN)NC(=O)[C@H](CCCNC(=N)N)NC1=O
# notes: also called ^LP-Y-K-V-R / ^DP-Y-K-K-K
# B4: target cyclic peptide 13 (peptide)
# peptide: cyclo(PWIVRKKPW[dP])
# SMILES: CC[C@H](C)[C@@H]1NC(=O)[C@H](Cc2c[nH]c3ccccc23)NC(=O)[C@@H]2CCCN2C(=O)[C@H]2CCCN2C(=O)[C@H](Cc2c[nH]c3ccccc23)NC(=O)[C@@H]2CCCN2C(=O)[C@H](CCCCN)NC(=O)[C@H](CCCCN)NC(=O)[C@H](CCCNC(=N)N)NC(=O)[C@H](C(C)C)NC1=O
# notes: also called ^LP-W-I-V-R / ^DP-W-P-K-K
# B5: target cyclic peptide 14 (peptide)
# peptide: cyclo(PWYVRKKYW[dP])
# SMILES: CC(C)[C@@H]1NC(=O)[C@H](Cc2ccc(O)cc2)NC(=O)[C@H](Cc2c[nH]c3ccccc23)NC(=O)[C@@H]2CCCN2C(=O)[C@H]2CCCN2C(=O)[C@H](Cc2c[nH]c3ccccc23)NC(=O)[C@H](Cc2ccc(O)cc2)NC(=O)[C@H](CCCCN)NC(=O)[C@H](CCCCN)NC(=O)[C@H](CCCNC(=N)N)NC1=O
# notes: also called ^LP-W-Y-V-R / ^DP-W-Y-K-K
# B6: target cyclic peptide 16 (peptide)
# peptide: cyclo(PWAVRKKAW[dP])
# SMILES: CC(C)[C@@H]1NC(=O)[C@H](C)NC(=O)[C@H](Cc2c[nH]c3ccccc23)NC(=O)[C@@H]2CCCN2C(=O)[C@H]2CCCN2C(=O)[C@H](Cc2c[nH]c3ccccc23)NC(=O)[C@H](C)NC(=O)[C@H](CCCCN)NC(=O)[C@H](CCCCN)NC(=O)[C@H](CCCNC(=N)N)NC1=O
# notes: also called ^LP-W-A-V-R / ^DP-W-A-K-K
# B7: target cyclic peptide 17 (peptide)
# peptide: cyclo(PWSVRKKSW[dP])
# SMILES: CC(C)[C@@H]1NC(=O)[C@H](CO)NC(=O)[C@H](Cc2c[nH]c3ccccc23)NC(=O)[C@@H]2CCCN2C(=O)[C@H]2CCCN2C(=O)[C@H](Cc2c[nH]c3ccccc23)NC(=O)[C@H](CO)NC(=O)[C@H](CCCCN)NC(=O)[C@H](CCCCN)NC(=O)[C@H](CCCNC(=N)N)NC1=O
# notes: also called ^LP-W-S-V-R / ^DP-W-S-K-K
# B8: target cyclic peptide 18 (peptide)
# peptide: cyclo(PWKVRKKKW[dP])
# SMILES: CC(C)[C@@H]1NC(=O)[C@H](CCCCN)NC(=O)[C@H](Cc2c[nH]c3ccccc23)NC(=O)[C@@H]2CCCN2C(=O)[C@H]2CCCN2C(=O)[C@H](Cc2c[nH]c3ccccc23)NC(=O)[C@H](CCCCN)NC(=O)[C@H](CCCCN)NC(=O)[C@H](CCCCN)NC(=O)[C@H](CCCNC(=N)N)NC1=O
# notes: also called ^LP-W-K-V-R / ^DP-W-K-K-K
# B9: target cyclic peptide 19 (peptide)
# peptide: cyclo(PAIVRKKPA[dP])
# SMILES: CC[C@H](C)[C@@H]1NC(=O)[C@H](C)NC(=O)[C@@H]2CCCN2C(=O)[C@H]2CCCN2C(=O)[C@H](C)NC(=O)[C@@H]2CCCN2C(=O)[C@H](CCCCN)NC(=O)[C@H](CCCCN)NC(=O)[C@H](CCCNC(=N)N)NC(=O)[C@H](C(C)C)NC1=O
# notes: also called ^LP-A-I-V-R / ^DP-A-P-K-K
# B10: target cyclic peptide 1 (peptide)
# peptide: cyclo(PEIVRKKPI[dP])
# SMILES: CC[C@H](C)[C@@H]1NC(=O)[C@H](CCC(=O)O)NC(=O)[C@@H]2CCCN2C(=O)[C@H]2CCCN2C(=O)[C@H]([C@@H](C)CC)NC(=O)[C@@H]2CCCN2C(=O)[C@H](CCCCN)NC(=O)[C@H](CCCCN)NC(=O)[C@H](CCCNC(=N)N)NC(=O)[C@H](C(C)C)NC1=O
# notes: mimic of PDGF loop III on a diproline template; also called compound 1
# B11: target cyclic peptide 20 (peptide)
# peptide: cyclo(PAYVRKKYA[dP])
# SMILES: CC(C)[C@@H]1NC(=O)[C@H](Cc2ccc(O)cc2)NC(=O)[C@H](C)NC(=O)[C@@H]2CCCN2C(=O)[C@H]2CCCN2C(=O)[C@H](C)NC(=O)[C@H](Cc2ccc(O)cc2)NC(=O)[C@H](CCCCN)NC(=O)[C@H](CCCCN)NC(=O)[C@H](CCCNC(=N)N)NC1=O
# notes: also called ^LP-A-Y-V-R / ^DP-A-Y-K-K
# B12: target cyclic peptide 21 (peptide)
# peptide: cyclo(PAWVRKKWA[dP])
# SMILES: CC(C)[C@@H]1NC(=O)[C@H](Cc2c[nH]c3ccccc23)NC(=O)[C@H](C)NC(=O)[C@@H]2CCCN2C(=O)[C@H]2CCCN2C(=O)[C@H](C)NC(=O)[C@H](Cc2c[nH]c3ccccc23)NC(=O)[C@H](CCCCN)NC(=O)[C@H](CCCCN)NC(=O)[C@H](CCCNC(=N)N)NC1=O
# notes: also called ^LP-A-W-V-R / ^DP-A-W-K-K
# B13: target cyclic peptide 22 (peptide)
# peptide: cyclo(PAAVRKKAA[dP])
# SMILES: CC(C)[C@@H]1NC(=O)[C@H](C)NC(=O)[C@H](C)NC(=O)[C@@H]2CCCN2C(=O)[C@H]2CCCN2C(=O)[C@H](C)NC(=O)[C@H](C)NC(=O)[C@H](CCCCN)NC(=O)[C@H](CCCCN)NC(=O)[C@H](CCCNC(=N)N)NC1=O
# notes: also called ^LP-A-A-V-R / ^DP-A-A-K-K
# B14: target cyclic peptide 23 (peptide)
# peptide: cyclo(PASVRKKSA[dP])
# SMILES: CC(C)[C@@H]1NC(=O)[C@H](CO)NC(=O)[C@H](C)NC(=O)[C@@H]2CCCN2C(=O)[C@H]2CCCN2C(=O)[C@H](C)NC(=O)[C@H](CO)NC(=O)[C@H](CCCCN)NC(=O)[C@H](CCCCN)NC(=O)[C@H](CCCNC(=N)N)NC1=O
# notes: also called ^LP-A-S-V-R / ^DP-A-S-K-K
# B15: target cyclic peptide 24 (peptide)
# peptide: cyclo(PAKVRKKKA[dP])
# SMILES: CC(C)[C@@H]1NC(=O)[C@H](CCCCN)NC(=O)[C@H](C)NC(=O)[C@@H]2CCCN2C(=O)[C@H]2CCCN2C(=O)[C@H](C)NC(=O)[C@H](CCCCN)NC(=O)[C@H](CCCCN)NC(=O)[C@H](CCCCN)NC(=O)[C@H](CCCNC(=N)N)NC1=O
# notes: also called ^LP-A-K-V-R / ^DP-A-K-K-K
# B16: target cyclic peptide 2 (peptide)
# peptide: cyclo(PEYVRKKYI[dP])
# SMILES: CC[C@H](C)[C@@H]1NC(=O)[C@H](Cc2ccc(O)cc2)NC(=O)[C@H](CCCCN)NC(=O)[C@H](CCCCN)NC(=O)[C@H](CCCNC(=N)N)NC(=O)[C@H](C(C)C)NC(=O)[C@H](Cc2ccc(O)cc2)NC(=O)[C@H](CCC(=O)O)NC(=O)[C@@H]2CCCN2C(=O)[C@H]2CCCN2C1=O
# notes: also called compound 2
# Molecular target: T1, platelet-derived growth factor …
# Test: solid-phase competition, displacement of 125I-PDGF-BB from plate-immobilised PDGFR-β
row,Binder,IC50
1,cyclo(PYWVRKKWY[dP]) (also called ^LP-Y-W-V-R / ^DP-Y-W-K-K) [target cyclic peptide 9],500 µM
2,B1,2000 µM
3,B2,2000 µM
4,B3,1500 µM
5,B4,260 µM
6,B5,170 µM
7,B6,800 µM
8,B7,800 µM
9,B8,500 µM
10,B9,< 2500 µM
11,B10,2200 µM
12,B11,2000 µM
13,B12,2000 µM
14,B13,< 2500 µM
15,B14,2500 µM
16,B15,2500 µM
17,B16,2000 µM
